In this assay the target is FGFR3. Nature of the assay: cell-based or functional assay.

With “FGF4^Δ54N165R (from UniProt P08620 55-206) (ligand)”, the concentration at which FDCP-FGFR3 cells proliferate (XTT) is greater than 0.1 ng/mL.

The substance “FGF4^Δ78 (from UniProt P08620 79-206) (ligand)” displayed a concentration inducing a growth response of FDCP-FGFR3 cells (XTT) greater than 25 ng/mL.

For the origin of these results see patent US20110053841A1.
